{"source": "paper PMC7782738", "binders": {"B1": {"name": "α-scorpion toxin LqhIII from the deathstalker scorpion Leiurus quinquestriatus hebraeus (natural protein)", "chain": "VRDGYIAQPENCVYHCFPGSSGCDTLCKEKGGTSGHCGFKVGHGLACWCNALPDNVGIIVEGEKCHS"}}, "key": {"[1]": {"target": "fully functional core construct of the rat cardiac sodium channel NaV1.5 (rNaV1.5C) (rat) (UniProt P15389)", "sequence (P15389 whole entry)": "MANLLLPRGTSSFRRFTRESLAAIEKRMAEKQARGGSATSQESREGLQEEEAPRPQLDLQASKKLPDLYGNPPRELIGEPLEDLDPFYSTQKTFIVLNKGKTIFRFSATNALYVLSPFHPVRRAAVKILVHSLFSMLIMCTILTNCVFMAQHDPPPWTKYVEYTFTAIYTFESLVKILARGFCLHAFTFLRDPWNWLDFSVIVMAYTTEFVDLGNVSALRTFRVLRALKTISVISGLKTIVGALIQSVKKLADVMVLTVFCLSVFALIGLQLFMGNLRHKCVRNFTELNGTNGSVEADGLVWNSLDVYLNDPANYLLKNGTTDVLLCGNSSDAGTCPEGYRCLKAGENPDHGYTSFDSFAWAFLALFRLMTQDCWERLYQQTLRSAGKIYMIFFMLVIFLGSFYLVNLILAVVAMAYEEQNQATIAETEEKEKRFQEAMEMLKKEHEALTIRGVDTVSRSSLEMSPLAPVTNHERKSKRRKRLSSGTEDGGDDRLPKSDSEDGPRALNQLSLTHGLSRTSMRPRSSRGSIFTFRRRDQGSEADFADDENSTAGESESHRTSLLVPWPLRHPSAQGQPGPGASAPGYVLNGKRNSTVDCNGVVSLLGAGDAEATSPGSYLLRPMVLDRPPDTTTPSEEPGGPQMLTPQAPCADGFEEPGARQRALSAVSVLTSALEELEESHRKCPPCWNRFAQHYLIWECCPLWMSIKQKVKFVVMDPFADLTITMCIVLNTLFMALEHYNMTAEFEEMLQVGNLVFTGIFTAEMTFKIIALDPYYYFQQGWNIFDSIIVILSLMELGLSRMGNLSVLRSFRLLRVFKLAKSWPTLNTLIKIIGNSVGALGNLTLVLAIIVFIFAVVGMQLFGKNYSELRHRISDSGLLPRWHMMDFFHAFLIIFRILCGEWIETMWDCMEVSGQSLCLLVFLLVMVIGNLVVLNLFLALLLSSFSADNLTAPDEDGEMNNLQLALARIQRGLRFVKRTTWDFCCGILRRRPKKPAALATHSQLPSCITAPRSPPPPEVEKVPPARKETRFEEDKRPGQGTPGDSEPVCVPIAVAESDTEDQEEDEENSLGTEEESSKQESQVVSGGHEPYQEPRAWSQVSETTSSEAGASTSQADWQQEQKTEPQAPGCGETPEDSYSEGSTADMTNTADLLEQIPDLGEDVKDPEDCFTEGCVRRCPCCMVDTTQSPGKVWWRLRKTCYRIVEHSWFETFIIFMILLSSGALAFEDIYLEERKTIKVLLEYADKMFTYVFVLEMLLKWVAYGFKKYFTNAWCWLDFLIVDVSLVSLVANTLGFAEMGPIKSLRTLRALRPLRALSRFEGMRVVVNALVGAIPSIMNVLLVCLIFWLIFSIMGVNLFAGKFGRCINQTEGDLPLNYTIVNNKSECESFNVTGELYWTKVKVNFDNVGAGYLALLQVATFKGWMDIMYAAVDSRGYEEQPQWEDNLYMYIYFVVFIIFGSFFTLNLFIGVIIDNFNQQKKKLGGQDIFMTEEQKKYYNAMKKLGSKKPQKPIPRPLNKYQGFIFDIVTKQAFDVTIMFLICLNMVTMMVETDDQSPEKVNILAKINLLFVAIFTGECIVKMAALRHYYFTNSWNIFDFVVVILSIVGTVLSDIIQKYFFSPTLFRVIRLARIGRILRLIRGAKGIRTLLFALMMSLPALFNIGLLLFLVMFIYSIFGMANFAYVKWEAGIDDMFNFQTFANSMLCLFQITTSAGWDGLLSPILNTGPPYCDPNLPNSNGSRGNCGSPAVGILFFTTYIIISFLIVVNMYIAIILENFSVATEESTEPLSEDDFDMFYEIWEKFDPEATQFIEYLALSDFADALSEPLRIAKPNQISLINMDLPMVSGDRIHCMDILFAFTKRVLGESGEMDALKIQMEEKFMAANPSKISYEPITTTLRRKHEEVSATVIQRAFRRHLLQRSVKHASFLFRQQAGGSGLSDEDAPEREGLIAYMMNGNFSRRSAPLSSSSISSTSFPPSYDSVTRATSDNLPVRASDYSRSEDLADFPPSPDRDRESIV"}, "[2]": {"target": "fully functional core construct of the rat cardiac sodium channel NaV1.5 (rNaV1.5C) (rat) (UniProt P15389)", "assay": "cryo-EM structure; purified rNaV1.5C (~1 mg/ml) mixed with 50 uM LqhIII and purified FGF12b and calmodulin, re-run on Superose-6 in 25 mM imidazole pH 6.0, 150 mM NaCl, 0.006% GDN; peak concentrated to 5 mg/ml; no membrane potential"}}, "data": [{"binder": "B1", "values": [{"measurement": "inhibition of fast inactivation: sodium current remaining 6 ms after the depolarizing pulse, whole-cell patch clamp of HEK293S GnTI- cells expressing rNaV1.5C, 1-1000 nM LqhIII", "setting": "[1]", "value": 11.4, "unit": "nM"}, {"measurement": "time course of the block of fast inactivation on perfusion of 100 nM LqhIII, cells held at -120 mV, single exponential fit", "setting": "[1]", "value": 11.3, "unit": "min"}, {"measurement": "stoichiometry N", "setting": "[2]", "value": 1}]}]}
